This is an account of results in patent publication US20230303695A1 (SHANGHAI XBH BIOTECHNOLOGY, published 2023).

Assay [1] concerns the target T1, recombinant human IGSF8 extracellular domain tagged by a human Fc region (IGSF8-hFc) (human, UniProt Q969P0 28-579, biotin label in Examples 17, 18 and 28 (site not given)).
T1 construct: also called IGSF8-Fc fusion protein; IGSF8-hFc-biotin; not shown: human Fc region
T1 sequence: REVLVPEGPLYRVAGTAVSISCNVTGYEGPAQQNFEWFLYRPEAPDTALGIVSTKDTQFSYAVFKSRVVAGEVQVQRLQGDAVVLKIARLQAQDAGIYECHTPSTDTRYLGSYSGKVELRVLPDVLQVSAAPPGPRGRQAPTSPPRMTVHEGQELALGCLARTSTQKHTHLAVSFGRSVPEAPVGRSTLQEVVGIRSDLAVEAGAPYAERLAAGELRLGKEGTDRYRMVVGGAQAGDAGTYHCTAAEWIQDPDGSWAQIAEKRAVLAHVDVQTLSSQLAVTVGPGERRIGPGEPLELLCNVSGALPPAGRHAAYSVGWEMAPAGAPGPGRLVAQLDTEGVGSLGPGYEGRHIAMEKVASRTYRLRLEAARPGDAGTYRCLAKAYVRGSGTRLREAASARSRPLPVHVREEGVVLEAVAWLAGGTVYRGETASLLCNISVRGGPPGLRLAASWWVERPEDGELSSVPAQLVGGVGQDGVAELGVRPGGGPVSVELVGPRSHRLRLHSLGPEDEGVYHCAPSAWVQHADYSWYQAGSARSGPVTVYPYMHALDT
As to the kind of experiment: FACS, IGSF8-hFc on CT26 cells, MFI normalized to Thy1.1. As to the method:
(§1) KLRC1 also contains a ITIM motif in its intracellular domain, and was known to be a inhibitory receptor of NK or CD8⁺ T cells as part of a heterodimer with KLRD1 on the cell surface. […] Specifically, 100,000 CT26 cells overexpressing the antigens (KIRs or KLRs) were washed with PBS buffer containing 2% FBS, and incubated with 100 μL IGSF8 recombinant proteins or antibodies (5 μg/mL) for 30 minutes on ice. Cells were then washed twice with wash buffer, and incubated with 100 μL of 1:100 anti-human Fc-PE antibody for 15 minutes on ice. Cells were washed twice with wash buffer and analyzed on a FACS analyzer (CytoFlex, Beckman). In these experiments, the mean fluorescence intensity (MFI) of IGSF8 binding to different CT26 cells were normalized by the expression of different KLRs on CT26 cells using an anti-thy1.1 mAb via flow cytometry.

Assay [2] concerns the target T1, recombinant human IGSF8 extracellular …. The assay can be described thus: FACS blocking assay: antibody titrated against biotinylated IGSF8-hFc (1 ug/mL) binding to KIR3DL2 on CT26 cells, Streptavidin-PE. As to the method:
CT26 cells with forced ectopic/exogenous human KIR3DL2 expression were incubated with biotinylated IGSF8-hFc recombinant protein (1 μg/mL) in the presence of the antibodies L1-20, L2-10, and a isotype control antibody. The binding of IGSF8-hFc-biotin to the Ct26 cells was determined using Streptavidin-PE by flow cytometry analysis (FIG. 39).

Assay [3] addresses T2, human IGSF8 expressed on the cell surface (human, UniProt Q969P0 28-613).
T2 construct: whole, on cells; also called human IGSF8 on CT26 cells; IGSF8 on MC38 cells
T2 sequence (looked up): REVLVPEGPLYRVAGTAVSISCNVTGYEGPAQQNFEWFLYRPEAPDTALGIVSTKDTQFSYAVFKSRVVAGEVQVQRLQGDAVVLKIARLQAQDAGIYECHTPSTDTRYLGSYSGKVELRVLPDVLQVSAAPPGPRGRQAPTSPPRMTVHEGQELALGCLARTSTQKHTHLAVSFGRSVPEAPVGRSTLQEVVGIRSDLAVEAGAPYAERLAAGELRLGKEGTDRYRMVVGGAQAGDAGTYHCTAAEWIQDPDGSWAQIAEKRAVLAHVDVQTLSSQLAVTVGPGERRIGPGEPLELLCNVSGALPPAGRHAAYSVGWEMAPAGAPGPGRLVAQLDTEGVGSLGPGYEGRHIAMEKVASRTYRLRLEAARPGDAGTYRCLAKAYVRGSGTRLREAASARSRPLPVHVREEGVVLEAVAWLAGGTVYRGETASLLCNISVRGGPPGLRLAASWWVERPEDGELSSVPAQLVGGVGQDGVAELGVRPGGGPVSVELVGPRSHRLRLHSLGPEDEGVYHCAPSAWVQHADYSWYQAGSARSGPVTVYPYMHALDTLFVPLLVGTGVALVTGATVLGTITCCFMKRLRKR
The assay can be described thus: FACS on CT26 cells expressing IGSF8. Here is the method:
(§2) To test cross reactivity of the L1, and L2 antibodies, CT26 cells with forced human, cynomolgus monkey, or mouse IGSF8 expression were generated by lentiviral delivery. For antibody binding assays based on cell-expressed antigens, 100,000 cells overexpressing the antigen were washed with PBS buffer containing 2% FBS, and then incubated with 100 μL of antibodies or IgG of different concentrations for 30 minutes on ice. Cells were then washed twice with wash buffer, and incubated with 100 μL of 1:100 anti-human Fc-PE antibody for 15 minutes on ice. Cells were washed twice with wash buffer and analyzed on a FACS analyzer (CytoFlex, Beckman). The MFI was plotted vs. antibody concentration. The EC50 cell binding potenct was calculated using nonlinear regression curve fit.

For assay [4], the target named is T3, cynomolgus monkey IGSF8 expressed on CT26 cells (cynomolgus monkey, UniProt Q969P0 28-613 (human entry)).
T3 sequence: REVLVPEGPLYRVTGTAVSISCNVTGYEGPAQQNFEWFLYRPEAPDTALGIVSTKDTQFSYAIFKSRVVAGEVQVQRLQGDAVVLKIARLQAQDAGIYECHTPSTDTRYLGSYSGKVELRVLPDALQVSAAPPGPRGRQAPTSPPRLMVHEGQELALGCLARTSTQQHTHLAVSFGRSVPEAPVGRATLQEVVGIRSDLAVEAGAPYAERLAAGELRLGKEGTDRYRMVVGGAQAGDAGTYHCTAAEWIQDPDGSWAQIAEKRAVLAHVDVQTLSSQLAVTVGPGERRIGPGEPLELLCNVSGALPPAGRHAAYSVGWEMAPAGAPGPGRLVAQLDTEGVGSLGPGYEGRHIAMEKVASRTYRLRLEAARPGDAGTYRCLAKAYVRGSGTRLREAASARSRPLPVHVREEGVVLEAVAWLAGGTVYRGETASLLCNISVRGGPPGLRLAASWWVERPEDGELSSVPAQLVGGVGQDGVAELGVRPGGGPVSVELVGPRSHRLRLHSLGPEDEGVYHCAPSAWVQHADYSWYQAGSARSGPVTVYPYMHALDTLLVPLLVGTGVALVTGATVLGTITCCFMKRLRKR
The assay can be described thus: FACS on CT26 cells expressing IGSF8. Here is the method: as §2

For assay [5], the target named is T4, mouse IGSF8 expressed on CT26 cells (mouse, UniProt Q8R366 26-611).
T4 construct: whole, on cells
T4 sequence (looked up): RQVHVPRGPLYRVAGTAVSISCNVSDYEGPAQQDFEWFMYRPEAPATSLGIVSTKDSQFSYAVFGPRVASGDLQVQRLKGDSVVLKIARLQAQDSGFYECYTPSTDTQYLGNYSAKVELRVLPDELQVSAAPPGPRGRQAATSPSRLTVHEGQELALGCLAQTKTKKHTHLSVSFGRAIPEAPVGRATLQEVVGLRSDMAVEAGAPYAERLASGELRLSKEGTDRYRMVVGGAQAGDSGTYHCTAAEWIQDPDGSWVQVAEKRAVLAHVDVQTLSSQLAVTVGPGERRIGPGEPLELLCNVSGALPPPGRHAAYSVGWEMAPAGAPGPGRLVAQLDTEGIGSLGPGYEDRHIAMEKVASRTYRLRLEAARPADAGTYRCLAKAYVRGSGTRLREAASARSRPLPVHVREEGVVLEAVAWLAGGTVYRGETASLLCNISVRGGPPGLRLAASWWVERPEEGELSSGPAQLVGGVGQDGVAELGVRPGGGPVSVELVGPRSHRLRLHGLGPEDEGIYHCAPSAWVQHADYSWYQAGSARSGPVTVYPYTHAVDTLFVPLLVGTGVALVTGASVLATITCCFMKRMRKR
As to the kind of experiment: FACS on CT26 cells expressing mouse IGSF8, anti-human Fc-PE. As to the method:
as §2

Assay [6] concerns the target T1, recombinant human IGSF8 extracellular …. The assay can be described thus: SPR, Ab captured. As to the method:
The binding affinities of the L1 and L2 antibodies to IGSF8 recombinant protein were determined by surface plasmon resonance (SPR). Briefly, anti-human Fab antibody was imobilized on acarboxyl-derivatized SPR chip surface, and the antibodies were captured on the resulting surface at 5 μg/ml for 30 seconds.

Assay [7] has the same target. The assay can be described thus: FACS, biotin-labelled IGSF8-hFc on CT26 cells expressing the KIR, MFI normalized to Thy1.1. As to the method:
For this experiment, different human KIR receptors (KIR2DL1, KIR2DL2, KIR2DL3, KIR2DL4, KIR2DL5A, KIR2DL5B, KIR3DL1, KIR3DL2, KIR3DL3) were first cloned into a proprietary lentiviral vector containing a thy1.1 tag (FIG. 17A). Then mouse CT26 cells, were transducted by these lentiviral constructs, and IGSF8 binding was tested with biotin-labelled recombinant IGSF8 hFc fusion protein. The mean fluorescence intensity (MFI) of IGSF8 binding to different CT26 cells were normalized by the expression of different KIRs on CT26 cells using an anti-thy1.1 mAb (Biolegend) via flow cytometry.
as §1

The target in assay [8] is T5, IGSF8 protein without D1 domain (human, UniProt Q969P0 150-579, limits assumed).
T5 construct: domain: D2-4; also called D24; D2-4
T5 sequence (looked up): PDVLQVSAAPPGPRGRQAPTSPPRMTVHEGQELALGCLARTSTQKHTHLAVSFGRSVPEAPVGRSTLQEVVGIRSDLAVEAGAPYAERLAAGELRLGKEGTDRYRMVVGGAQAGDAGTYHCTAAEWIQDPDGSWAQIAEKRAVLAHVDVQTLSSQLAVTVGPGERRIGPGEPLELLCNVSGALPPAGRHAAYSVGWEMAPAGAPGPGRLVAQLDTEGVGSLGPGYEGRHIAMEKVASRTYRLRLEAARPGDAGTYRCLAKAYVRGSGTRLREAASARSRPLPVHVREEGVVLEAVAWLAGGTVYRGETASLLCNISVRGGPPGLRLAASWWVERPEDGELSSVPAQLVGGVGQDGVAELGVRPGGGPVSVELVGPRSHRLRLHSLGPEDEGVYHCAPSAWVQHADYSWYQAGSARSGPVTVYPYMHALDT
The assay can be described thus: FACS, hFc-tagged proteins on CT26 cells expressing the receptor, MFI normalized to Thy1.1. As to the method:
as §1

B1: KLRC1 alone on CT26 cells (receptor)
chain: not shown
notes: whole, on cells; also called KLRC1 monomer
In the case of B1, the binding result in assay [1] is on record as “no binding”.

B2: L2-10 (antibody, V domains shown)
VH: EVQLVESGGGLEQPGGSLRLSCAASGFTFRDYAMTWVRQAPGKGLEWVSSISGSGGSTYYADSVKGRFTISRDNSKNTLYLQMNSLRAEDTAIYYCARGEYSSGWPSWFDPWGQGTLVTVSS
VL: DIQMTQSPSSLSASVGDRVTITCRASRTVGTFLNWYQQKPGKAPKALILHTSILEGGVPSRFSGSGSGTDFTLTISSLQPEDIATYYCQQSHDVPRTFGQGTKVEIK
notes: also called L2-10-IgG1
B2: the “IC50 (read off the curve)” value in assay [2] was ~0.4 µg/mL. Further, the EC50 in assay [3] came to 0.145 µg/mL. In assay [4], the EC50 came out at 0.041 µg/mL. For the same molecule, in assay [5], the binding result is recorded as “no binding (tested: 40 ug/ml)”. Further, in assay [6], the Kd was 0.256 nM, the koff amounted to 3.68e-05 s⁻¹ and the kon amounted to 144000 M⁻¹ s⁻¹.

B3: L2-01 (antibody, V domains shown)
VH: EVQLVESGGGLEQPGGSLRLSCAGSGFTFRDYAMTWVRQAPGKGLEWVSSISGSGGNTYYADSVKGRFTISRDNSKNTLYLQMNSLRAEDTAIYYCARGEYSSGWPSWFDPWGQGTLVTVSS
VL: EIVLTQSPSSLSASVGDRVTISCRASRTVGTFLNWYQQRPGKPPQALILGVSILEGGVSSRFSGAGSGTEFSLTISSLQPEDIGTYYCQQSHDVPRTFGQGTKVDLR
notes: Expressed in CHO cells; also called L2 antibody; L2-01-IgG1
With B3, the EC50 in assay [3] worked out at 0.473 µg/mL; in assay [4] it was 0.212 µg/mL. Also, in assay [5], the binding result is recorded as “no binding (tested: 40 ug/ml)”.

B4: KIR3DL1 expressed on CT26 cells (receptor, human, UniProt P43629 22-444, looked up)
chain: HMGGQDKPFLSAWPSAVVPRGGHVTLRCHYRHRFNNFMLYKEDRIHIPIFHGRIFQESFNMSPVTTAHAGNYTCRGSHPHSPTGWSAPSNPVVIMVTGNHRKPSLLAHPGPLVKSGERVILQCWSDIMFEHFFLHKEGISKDPSRLVGQIHDGVSKANFSIGPMMLALAGTYRCYGSVTHTPYQLSAPSDPLDIVVTGPYEKPSLSAQPGPKVQAGESVTLSCSSRSSYDMYHLSREGGAHERRLPAVRKVNRTFQADFPLGPATHGGTYRCFGSFRHSPYEWSDPSDPLLVSVTGNPSSSWPSPTEPSSKSGNPRHLHILIGTSVVIILFILLLFFLLHLWCSNKKNAAVMDQEPAGNRTANSEDSDEQDPEEVTYAQLDHCVFTQRKITRPSQRPKTPPTDTILYTELPNAKPRSKVVSCP
notes: whole, on cells; lentiviral vector containing a thy1.1 tag
Take B4: the binding result in assay [7] was “binds”; in assay [8], “no binding”.
